# From article PMC11754096
# Target: T-complex protein ring complex (TRiC), endogenous (human (endogenous in HEK293 cells)) (UniProt P17987)
# Assay: cryo-EM structure; in situ cryo-electron tomography of FIB-milled HEK Flp-In T-Rex 293 cells, template matching, subtomogram averaging and classification; open TRiC; untreated cells and cells treated with 100 µM HHT for 2 h
substance,measurement,value
"prefoldin (PFD), endogenous (complex)",percent of all TRiC with a single PFD (HHT-treated cells),18%
same,percent of all TRiC with a single PFD (untreated cells),12%
same,percent of all TRiC with two PFD (HHT-treated cells),2%
same,percent of all TRiC with two PFD (untreated cells),1%
